The source of these data is US20070025968A1, “Methods for selecting and producing T cell peptide epitopes and vaccines incorporating said selected epitopes” (priority 1996, published 2007).

What all share (conditions): remark: other sources report otherwise
For assay [1], the target named is HLA-A*0201 on mild-acid treated JY cells (human). The assay can be described thus: competition vs FL-reference peptide, JY cells.
Assay [2] has the same target. Put plainly: competition vs FL-reference peptide, JY cells, 4°C 24 hr.
The target is the same in assay [3]. Put plainly: competition vs FL-reference peptide, JY cells, 26°C 3 hr.
For assay [4] the target is unchanged. Put plainly: competition vs FL-reference peptide, JY cells, 26°C 24 hr.
Assay [5] has the same target.

The IC50 is the concentration that gives 50% inhibition. The low end stands for greater potency in that assay, the high end for weaker potency in that assay. For WLSLLVPFV [HBV surface 335], in assay [1], the IC50 was found to be 1000 nM.
Turning to TLGIVCPI [HPV16 E7 86-93], the IC50 in assay [2] came to 700 nM; in assay [3] it was 6500 nM; in assay [1], 700 nM; in assay [4], 3100 nM.
DLMGYIPLV [HCVcore-132] displayed an IC50 in assay [1] of 5000 nM.
FLPSDFFPSV [hepatitis B nucleocapsid peptide …]: the IC50 in assay [1] is 400 nM.
In the case of PLEEELPRL [HBV Pol 594-602], the HLA molecules detectable after 2 hr at 37°C (NS = non stable) in assay [5] was < 10%.
